Assay [1] has as its target human activated protein C (APC), wild type (human, UniProt P04070, gamma carboxylglutamic acid (Gla) residues in the amino-terminal Gla domain (x in Sequence ID No. 2); Gla content 8.7±0.3 per mole for protein C). The assay is described as follows: cell-based or functional assay.

For “APC-PT Gla (activated chimeric protein C with the Gla domain and hydrophobic stack of prothrombin) (from UniProt P04070) (enzyme)”, in the assay with factor Va, the factor Va inactivation (three stage assay, residual factor Va activity in prothrombinase) (times more active than wild type APC) came to 5.

B1: human protein S (other)
chain: ANSLLEETKQGNLERECIEELCNKEEAREVFENDPETDYFYPKYLVCLRSFQTGLFTAARQSTNAYPDLRSCVNAIPDQCSPLPCNEDGYMSCKDGKASFTCTCKPGWQGEKCEFDINECKDPSNINGGCSQICDNTPGSYHCSCKNGFVMLSNKKDCKDVDECSLKPSICGTAVCKNIPGDFECECPEGYRYNLKSKSCEDIDECSENMCAQLCVNYPGGYTCYCDGKKGFKLAQDQKSCEVVSVCLPLNLDTKYELLYLAEQFAGVVLYLKFRLPEISRFSAEFDFRTYDSEGVILYAESIDHSAWLLIALRGGKIEVQLKNEHTSKITTGGDVINNGLWNMVSVEELEHSISIKIAKEAVMDINKPGPLFKPENGLLETKVYFAGFPRKVESELIKPINPRLDGCIRSWNLMKQGASGIKEIIQEKQNKHCLVTVEKGSYYPGSGIAQFHIDYNNVSSAEGWHVNVTLNIRPSTGTGVMLALVSGNNTVPFAVSLVDSTSEKSQDILLSVENTVIYRIQALSLCSDQQSHLEFRVNRNNLELSTPLKIETISHEDLQRQLAVLDKAMKAKVATYLGGLPDVPFSATPVNAFYNGCMEVNINGVQLDLDEAISKHNDIRAHSCPSVWKKTKNS
B1: in assay [1], the “factor Va inactivation by APC with and without protein S” value is 2 fold.

The values are drawn from patent publication US5837843, “Modified protein C” (Oklahoma Medical Research Foundation, dated 1998).
